From patent publication US20120225437A1 (UNIVERSITY OF LEICESTER, published 2012)

How the values were obtained:
[1] = biological target: T1, Rat MBL-A (mannan-binding lectin A) (rat, UniProt P19999 18-238); assay: SPR, MBL immobilised, CUB2 injected, 5 mM Ca2+
T1 construct: mature; It was immobilised on the SPR chip by amine coupling
Experimental: (§1) Data were fitted to a model in which there is a single Ca²⁺ site.
(§2) MBL (0.025 mg/ml) was immobilized onto the surface of a GLM sensor chip (˜10,000 response units) at pH 4.5, using amine-coupling chemistry. […] For inhibition assays, MBL was immobilized on to a CM-5 sensor chip (14,000 response units) and binding was measured on a Biacore® 2000 (GE Healthcare) in 20 mM Tris/HCl pH 7.4, containing 140 mM NaCl, 5 mM Ca²⁺, and 0.005% SP-20. […] Changes in response units caused by differences in sample composition were subtracted from all data. To account for changes in ionic strength of the buffer due to the inhibitor, binding was measured in the presence of equivalent concentrations of NaCl.

[2] = biological target: T1, Rat MBL-A (mannan-binding lectin A); assay: SPR, MBL immobilised, CUB2 at 20, 10, 5 and 2.5 µM, 1:1 model
Experimental: as §1, §2

Kd [1]: 27 µM
koff [2]: 0.0035 s⁻¹
kon [2]: 131 M⁻¹ s⁻¹
B1: CUB2 domain of rat MASP-1/-3 (residues E165-A277 of the mature polypeptide, isoform 1) (other)
chain: CSGNLFTQRTGTITSPDYPNPYPKSSECSYTIDLEEGFMVTLQFEDIFDIEDHPEVPCPYDYIKIKAGSKVWGPFCGEKSPEPISTQSHSIQILFRSDNSGENRGWRLSYRA
notes: also called MASP-1 CUB2; rat MASP-1 CUB2
